Measurements: article PMC4514111

Target: PARP-1 (recombinant, unmodified) (UniProt P09874 1-1014)
Experiment: EMSA

Sequence of PARP-1 (recombinant, unmodified) (P09874 whole entry): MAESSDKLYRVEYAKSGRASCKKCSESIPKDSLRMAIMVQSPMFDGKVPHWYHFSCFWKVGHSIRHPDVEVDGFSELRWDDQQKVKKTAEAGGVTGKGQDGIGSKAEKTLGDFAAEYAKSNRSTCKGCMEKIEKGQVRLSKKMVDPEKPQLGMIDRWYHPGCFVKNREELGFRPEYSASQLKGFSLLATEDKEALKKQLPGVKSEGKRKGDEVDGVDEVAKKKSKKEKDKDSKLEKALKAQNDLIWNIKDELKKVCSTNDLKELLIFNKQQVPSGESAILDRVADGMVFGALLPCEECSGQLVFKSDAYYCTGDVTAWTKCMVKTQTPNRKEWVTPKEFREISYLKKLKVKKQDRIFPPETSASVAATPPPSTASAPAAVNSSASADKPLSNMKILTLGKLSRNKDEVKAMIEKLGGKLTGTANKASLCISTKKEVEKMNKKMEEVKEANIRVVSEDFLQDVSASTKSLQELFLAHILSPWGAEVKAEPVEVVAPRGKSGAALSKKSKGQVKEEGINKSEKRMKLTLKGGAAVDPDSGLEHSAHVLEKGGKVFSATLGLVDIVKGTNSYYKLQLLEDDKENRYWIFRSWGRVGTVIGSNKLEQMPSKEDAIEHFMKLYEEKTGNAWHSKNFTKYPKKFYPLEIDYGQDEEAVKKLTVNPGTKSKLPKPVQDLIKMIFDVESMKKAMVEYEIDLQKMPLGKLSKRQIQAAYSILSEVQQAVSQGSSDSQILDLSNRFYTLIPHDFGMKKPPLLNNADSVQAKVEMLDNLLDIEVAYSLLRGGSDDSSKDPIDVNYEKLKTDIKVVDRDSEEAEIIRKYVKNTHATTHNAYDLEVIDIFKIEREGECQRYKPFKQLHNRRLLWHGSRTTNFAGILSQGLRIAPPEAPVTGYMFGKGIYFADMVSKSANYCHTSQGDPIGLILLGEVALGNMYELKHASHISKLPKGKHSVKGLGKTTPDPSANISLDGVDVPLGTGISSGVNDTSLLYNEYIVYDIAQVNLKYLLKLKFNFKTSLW

B1: NS (MOR poly(C) sequence) (dsDNA)
DNA 1: CTTCTGCTCCCCCCCCCCCTACCC
DNA 2: GGGTAGGGGGGGGGGGAGCAGAAG
B1: binds.
